US20210355194A1 (TWIST BIOSCIENCE, published 2021)
Where two headings read alike, the source gives them in different places.

B1: variant 2-2 (antibody, V domains shown)
VH: EVQLLESGGGLVQPGGSLRLSCAASGFTFSRHAMNWVRQAPGKGLEWVSGISGSGDETYYADSVKGRFTISRDNSKNTLYLQMNSLRAEDTAVYYCARDLPASYYDSSGYYWHNGMDVWGQGTLVTVSS
VL: DIQMTQSPSSLSASVGDRVTITCRASQTINTYLNWYQQKPGKAPKLLIYSASTLQSGVPSRFSGSGSGTDFTLTISSLQPEDFATYYCQQSYSTFTFGQGTKVEIK
B2: SARS-CoV-2 S1 variant 2-2 (antibody, V domains shown)
VH: B1 VH
VL: B1 VL
B3: variant 2-5 (antibody, V domains shown)
VH: EVQLLESGGGLVQPGGSLRLSCAASGFTFSDFAMAWVRQAPGKGLEWVSAISGSGDITYYADSVKGRFTISRDNSKNTLYLQMNSLRAEDTAVYYCAREADGLHSPWHFDLWGQGTLVTVSS
VL: DIQMTQSPSSLSASVGDRVTITCRASQSIHTYLNWYQQKPGKAPKLLIYAASALASGVPSRFSGSGSGTDFTLTISSLQPEDFATYYCQQSYSAPPYTFGQGTKVEIK
B4: SARS-CoV-2 S1 variant 2-5 (antibody, V domains shown)
VH: B3 VH
VL: B3 VL

Assays:
[1] = biological target: T1, SARS-CoV-2 spike on live SARS-CoV-2 virus (SARS-CoV-2, UniProt P0DTC2 14-1273); assay: cell-based or functional assay
[2] = biological target: T1, SARS-CoV-2 spike on live SARS-CoV-2 …; assay: cell-based or functional assay; remark: listed apart in the source
[3] = biological target: SARS-CoV-2 spike on VSV-pseudotype SARS-CoV-2 (SARS-CoV-2, UniProt P0DTC2 14-1273); assay: cell-based or functional assay
[4] = biological target: T2, Acro COVID S1 (S1N-C82E8) (SARS-CoV-2, UniProt P0DTC2 16-685); assay: phage ELISA
T2 construct: domain: subunit 1 (S1)

[5] = biological target: T2, Acro COVID S1 (S1N-C82E8); assay: phage ELISA; remark: listed apart in the source

Row | Binder | EC50 [1] [µg/mL] | EC80 [2] [µg/mL] | NC50 [3] [µg/mL] | ELISA fold over background [4] [fold] | ELISA fold over background [5] [fold]
1 | B1 | 67.6 | 355 | 67.6 |  | 
2 | B2 |  |  |  | 39.4 | 39.4
3 | B3 | 18.3 | 106 | 18.3 |  | 
4 | B4 |  |  |  | 38.3 | 38.3
